In patent publication US20220119534A1 (DRAGONFLY THERAPEUTICS, published 2022):
“And” between values parts separate entries of the source, which are not always exact repeats. Equal entries are not always repeated.

What was measured:
[1] = target: T1, Human CLEC12A-His (recombinant, K244 WT) (human, UniProt Q5QGZ9 65-265); experiment: SPR, two-state fit (kd1); control sample
T1 construct: Made in house (Dragonfly Tx); also called hCLEC12A; hCLEC12A-His; not shown: His tag
T1 sequence: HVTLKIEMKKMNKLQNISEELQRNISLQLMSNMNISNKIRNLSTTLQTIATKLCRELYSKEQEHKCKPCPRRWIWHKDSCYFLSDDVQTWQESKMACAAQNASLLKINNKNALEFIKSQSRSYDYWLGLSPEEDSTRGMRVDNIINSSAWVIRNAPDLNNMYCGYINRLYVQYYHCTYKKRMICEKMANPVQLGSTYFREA

[2] = target: T1, Human CLEC12A-His (recombinant, K244 WT); experiment: SPR, two-state fit; after pH 5.0, 40C, 2 wks
Protocol: (§1) Briefly, human Fc specific antibodies were covalently immobilized at a density ˜8000-10000 resonance units (RU) on carboxy methyl dextran matrix of a CM5 biosensor chip via amine-coupling chemistry to create an anti-hFc IgG chip. […] Association was monitored for 300 seconds and dissociation was monitored for 600 seconds. Surfaces were regenerated between cycles with three pulses of 10 mM glycine-HCl, pH 1.7 injected for 20 seconds at 100 μl/min. HBS-EP+ (1×) with 0.1 mg/ml BSA was used as running buffer throughout the experiment. Experiments were performed at physiological temperature of 37° C. To obtain kinetic rate constants and overall binding affinity, double-referenced data were fit to a two-state kinetic model using Biacore 8K Insight Evaluation software (Cytiva).

[3] = target: T2, Cynomolgus CD16 (FcγRIII) (cynomolgus monkey, UniProt Q8SPW2 17-208, biotinylated); experiment: SPR 25C, biotinylated cyno CD16 captured
T2 construct: Bought recombinant receptor; also called cFcγRIII; Cyno FcγRIII

[4] = target: T1, Human CLEC12A-His (recombinant, K244 WT); experiment: SPR, two-state fit (kd1); after 4 wks 40C in HST pH 6.0
Protocol: as §1

[5] = target: T1, Human CLEC12A-His (recombinant, K244 WT); experiment: SPR 37C, AB0089 captured on anti-hFc, two-state fit (kd1)
Protocol: as §1

[6] = target: T1, Human CLEC12A-His (recombinant, K244 WT); experiment: SPR, two-state fit (ka1); control sample
Protocol: as §1

[7] = target: T3, Cynomolgus CD64 (FcγRI) (cynomolgus monkey, UniProt A0A2K5U901 33-309, Biotinylated and captured on the CAP chip (p-1094); the biotin site is not stated.); experiment: SPR 25C, average
T3 construct: Bought recombinant receptor; also called cFcγRI; Cynomolgus FcγRI; not shown: The vendor's biotinylation and purification tag (ACRO FCA-C82E8)

[8] = target: T4, Human CD64 (FcγRI) (human, UniProt P12314 16-288, biotinylated); experiment: SPR 25C, average
T4 construct: Bought recombinant receptor; also called hFcγRI; Human FcγRI
T4 sequence (P12314 16-288 limits assumed): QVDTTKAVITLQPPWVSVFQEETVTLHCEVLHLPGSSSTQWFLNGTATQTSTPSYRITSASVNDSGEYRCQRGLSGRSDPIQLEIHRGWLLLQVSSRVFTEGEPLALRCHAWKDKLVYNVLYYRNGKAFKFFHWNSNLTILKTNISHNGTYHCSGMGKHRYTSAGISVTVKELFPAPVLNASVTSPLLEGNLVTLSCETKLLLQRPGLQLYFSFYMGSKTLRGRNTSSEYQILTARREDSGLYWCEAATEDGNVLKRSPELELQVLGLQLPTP
Protocol: Human and cynomolgus CD64, high and low affinity alleles of CD16a (V158 and F158, respectively), two alleles of CD32a (H131 and R131), CD16b, CD32b and cynomolgus CD16 were captured via biotin on a primed (according to the manufacturers instruction) Biacore chip. […] Due to irreversibility of streptavidin-biotin interaction, the capture step for all receptors except FcγRI (CD64) was performed just once prior to the start of the binding experiment. hCD64 and cyno CD64 capture on the CAP chip surface was performed during each cycle in accordance with the manufacturer's instructions for the Biotin CAPture kit.

T3 sequence (A0A2K5U901 entry or part of it limits assumed): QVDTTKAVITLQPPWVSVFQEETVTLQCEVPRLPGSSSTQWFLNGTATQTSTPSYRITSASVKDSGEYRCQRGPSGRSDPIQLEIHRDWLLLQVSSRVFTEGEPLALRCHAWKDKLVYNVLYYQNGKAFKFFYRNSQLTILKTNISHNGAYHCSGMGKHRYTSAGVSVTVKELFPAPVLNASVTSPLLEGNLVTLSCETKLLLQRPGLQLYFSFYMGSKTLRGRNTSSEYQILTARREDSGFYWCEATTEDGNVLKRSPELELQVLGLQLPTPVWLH
T2 sequence (Q8SPW2 17-208 limits assumed): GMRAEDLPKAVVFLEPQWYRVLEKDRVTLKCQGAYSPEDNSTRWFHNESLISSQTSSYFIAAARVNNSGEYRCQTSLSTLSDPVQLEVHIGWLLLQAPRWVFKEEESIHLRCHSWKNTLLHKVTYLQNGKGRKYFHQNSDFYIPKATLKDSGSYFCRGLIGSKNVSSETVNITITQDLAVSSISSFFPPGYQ

B1: AB0089 TriNKET (bispecific antibody, human IgG1, kappa)
chain: QLQLQESGPGLVKPSETLSLTCTVSGFSLTNYGLHWIRQPPGKCLEWIGVIWVGGATDYNPSLKSRVTISVDTSKNQFSLKLSSVQAADTAVYYCAKGDYGDTLDYWGQGTLVTVSSGGGGSGGGGSGGGGSGGGGSDIQMTQSPSSLSASVGDRVTITCHASQNINFWLSWYQQKPGKAPKLLIYEASNLHTGVPSRFSGSGSGTDFTLTISSLQPEDFATYYCQQSHSYPLTFGCGTKLEIKGSDKTHTCPPCPAPELLGGPSVFLFPPKPKDTLMISRTPEVTCVVVDVSHEDPEVKFNWYVDGVEVHNAKTKPREEQYNSTYRVVSVLTVLHQDWLNGKEYKCKVSNKALPAPIEKTISKAKGQPREPRVYTLPPCRDELTKNQVSLTCLVKGFYPSDIAVEWESNGQPENNYKTTPPVLVSDGSFTLYSKLTVDKSRWQQGNVFSCSVMHEALHNHYTQKSLSLSPG
heavy: EVQLVESGGGLVKPGGSLRLSCAASGFTFSSYSMNWVRQAPGKGLEWVSSISSSSSYIYYADSVKGRFTISRDNAKNSLYLQMNSLRAEDTAVYYCARGAPIGAAAGWFDPWGQGTLVTVSSASTKGPSVFPLAPSSKSTSGGTAALGCLVKDYFPEPVTVSWNSGALTSGVHTFPAVLQSSGLYSLSSVVTVPSSSLGTQTYICNVNHKPSNTKVDKKVEPKSCDKTHTCPPCPAPELLGGPSVFLFPPKPKDTLMISRTPEVTCVVVDVSHEDPEVKFNWYVDGVEVHNAKTKPREEQYNSTYRVVSVLTVLHQDWLNGKEYKCKVSNKALPAPIEKTISKAKGQPREPQVCTLPPSRDELTENQVSLTCLVKGFYPSDIAVEWESNGQPENNYKTTPPVLDSDGSFFLYSWLTVDKSRWQQGNVFSCSVMHEALHNHYTQKSLSLSPG
light: DIQMTQSPSSVSASVGDRVTITCRASQGISSWLAWYQQKPGKAPKLLIYAASSLQSGVPSRFSGSGSGTDFTLTISSLQPEDFATYYCQQGVSFPRTFGGGTKVEIKRTVAAPSVFIFPPSDEQLKSGTASVVCLLNNFYPREAKVQWKVDNALQSGNSQESVTEQDSKDSTYSLSSTLTLSKADYEKHKVYACEVTHQGLSSPVTKSFNRGEC
notes: F3' format heterodimer of three chains; human IgG1 Fc with EW-RVT and Y349C/S354C mutations; also called AB0089 Lot AB0089-002; CLEC12A TriNKET AB0089
koff [1]: 0.0435 s⁻¹ | Kd [2]: 1 nM | Kd [3]: 351 nM and 347 nM and 348 nM | koff [4]: 0.0424 s⁻¹ | koff [5]: 0.0426 s⁻¹ and 0.0449 s⁻¹ and 0.0432 s⁻¹ | kon [6]: 1.04e+07 M⁻¹ s⁻¹ | Kd [7]: 1.5 nM | koff [7]: 8.1e-05 s⁻¹ | kon [7]: 55000 M⁻¹ s⁻¹ | Kd [8]: 5.1 nM | koff [8]: 0.00023 s⁻¹ | kon [8]: 46000 M⁻¹ s⁻¹
